This note sets out measurements from US11103555B2, “Compositions and methods for reducing tumor cell growth at a site of solid tumor excision” (The Pacific Heart, Lung, & Blood Institute, priority 2016, dated 2021).

This experiment has as its system melanoma. The experiment in a line: Treatment of patients with melanoma. In kind it is in vivo. The method, then: 100 patients are diagnosed with melanoma and subject to IL-12 recombinant protein injection at the tumor site. Patients receive either vehicle injections, 250 ng/kg/day of IL-12 or 500 ng/kg/day of IL-12 per treatment every three days for a week. […] By 5 years post-surgery, 40% of the patients who undergo IL-12 therapy have a relapse of […], and have 60% survival rate.
100 patients are diagnosed with melanoma and are administered genetically modified stem cells expressing IL-12 by intracavitary infusion. Tumor size is monitored by PET scan, and at the end of six months, the tumor size is reduced.

B1: IL-12: IL-12 recombinant protein injected at the tumor site (protein, listed as Homo sapiens)
chain 1: MCHQQLVISWFSLVFLASPLVAIWELKKDVYVVELDWYPDAPGEMVVLTCDTPEEDGITWTLDQSSEVLGSGKTLTIQVKEFGDAGQYTCHKGGEVLSHSLLLLHKKEDGIWSTDILKDQKEPKNKTFLRCEAKNYSGRFTCWWLTTISTDLTFSVKSSRGSSDPQGVTCGAATLSAERVRGDNKEYEYSVECQEDSACPAAEESLPIEVMVDAVHKLKYENYTSSFFIRDIIKPDPPKNLQLKPLKNSRQVEVSWEYPDTWSTPHSYFSLTFCVQVQGKSKREKKDRVFTDKTSATVICRKNASISVRAQDRYYSSSWSEWASVPCS
chain 2: MWPPGSASQPPPSPAAATGLHPAARPVSLQCRLSMCPARSLLLVATLVLLDHLSLARNLPVATPDPGMFPCLHHSQNLLRAVSNMLQKARQTLEFYPCTSEEIDHEDITKDKTSTVEACLPLELTKNESCLNSRETSFITNGSCLASRKTSFMMALCLSSIYEDLKMYQVEFKTMNAKLLMDPKRQIFLDQNMLAVIDELMQALNFNSETVPQKSSLEEPDFYKTKIKLCILLHAFRIRAVTIDRVMSYLNAS
On to B1, for which, where the note is “500 ng/kg/day versus 250 ng/kg/day or vehicle”, the “tumor size by PET scan, higher dose” value is listed as “greater reduction in tumor size than the lower dose or vehicle injected patients”. Further, under “IL-12 recombinant protein injection at the tumor site, 250 or 500 ng/kg/day every three days for a week, versus vehicle”, the “tumor size by PET scan” value was “reduced tumor size”. Under “by 5 years”, the patients with relapse stood at 40% and the survival rate was found to be 60%. Under “versus vehicle injections”, the “T cell activation and immune cell infiltration in biopsies of injected lesions” value is “more T cell activation and immune cell infiltration”.
